Consider one substance from patent US20160206741.

This series has as its system T1, GRRRGK (SEQ ID NO: 1) oligopeptide crosslink within P(MAA-co-NVP) microgels.
T1 sequence: GRRRGK

In the case of trypsin, the “relative turbidity of microgel solutions over time” value is “reduced relative turbidity as a function of time and trypsin concentration”; the “trypsin activity on the BAEE substrate (absorbance at 253 nm) after 90 min with 0-6 mg/ml microgels” value was “trypsin activity on the BAEE substrate is reduced as microgel concentration increases”.
